First the molecules themselves.
T1: biotinylated CRH (human and mouse, UniProt P01143 145-185 (rat entry), not fully specified; biotin; which end is not stated for the result (NT-biotin and CT-biotin forms were used))
T1 construct: also called biotin-CRH; CRH (NT biotin)
T1 peptide: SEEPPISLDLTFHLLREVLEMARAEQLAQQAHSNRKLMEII

T2: corticotropin-releasing hormone (CRH) peptide (human and mouse, UniProt P01143 145-185 (rat entry), not fully specified)
T2 peptide: T1 peptide

B1: PR302333 (antibody, human IgG1, kappa, V domains shown)
VH: QIQLVQSGPELKKPGETVKISCKASGYTFTNFGMNWVKQAPGKVLKWMGWINTYTGEPIYADDFKGRFAFSLETSASAAYLQINNLKNEDTATYFCSRSTMITTGGVFAYWGQGTLVTVSA
VL: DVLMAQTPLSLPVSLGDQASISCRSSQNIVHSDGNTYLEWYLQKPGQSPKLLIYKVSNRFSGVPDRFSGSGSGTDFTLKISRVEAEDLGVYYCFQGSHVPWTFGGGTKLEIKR
B2: PR302332 (antibody, human IgG1, kappa, V domains shown)
VH: B1 VH with N35H, D62A, A78T
VL: DVLMAQTPLSLPVSLGDQASISCRSSQSIVHSDGNTYLEWYLQKPGQSPKLLIYKVSNRFSGVPDRFSGSGSGTDFTLKISRVEAEDLGVYYCFQGSHVPWTFGGGTKLEIKR
B3: PR302335 (antibody, human IgG1, kappa, V domains shown)
VH: DVQLVESGGGLVQPGGSRKLSCAASGFTFSSFGMHWVRQAPEKGLEWVAYISSGSTIFYYADTVKGRFTISRDNPKNTLFLQMTSLRSEDTAMYYCARDITTATFAFWGQGTLVTVSA
VL: DVVLTQTPLSLPVSLGDQVSISCRSSQNLLHNNGNTYLHWYLQKPGQSPRLLIYKVSNRFSGVPDRFSGSGSGTDFTLKITRVEAEDLGVYFCSQSTHIPWTFGGGTKLEIKR
B4: PR302328 (antibody, human IgG1, kappa, V domains shown)
VH: EVKLVESGGGLVKPGGSLKLSCAASGFTFSSYAMSWVRQTPEKRLEWVASIRSGGTTYYPDSVKGRFTISRDNARNILYLQMSSLRSEDTAIYYCTRGIDWGQGTLVTVSA
VL: NIVMTQTPKFLLVSAGDRVTITCKASQSVNNDVAWYQQKPGQSPKLLIYYASNRYTGVPDRFTGSGYGTDFTFTISTVQAEDLAVYFCQQDYSSWTFGGGTKLEIKR
B5: PR302339 (antibody, human IgG1, kappa, V domains shown)
VH: B4 VH with M34L
VL: B4 VL
B6: PR302331 (antibody, human IgG1, kappa, V domains shown)
VH: B4 VH with T40S
VL: B4 VL with T22A
B7: PR302324 (antibody, human IgG1, kappa, V domains shown)
VH: EVQLQQSGPELVKPGASVKMSCKASGYTFTDYFMKWVKQSHGGSLEWIGVISPNNGDTFYNQKFKGKATLTVDKSSSTAFMQLNSLTSEDSAVYSCARGTDRALFAYWGQGTLVTVSA
VL: B2 VL with A5T, K44R, E84G, V99I, I111V
B8: PR302312 (antibody, human IgG1, kappa, V domains shown)
VH: B7 VH with V37M, G43K, S52N, K63N, F80Y, S95Y, A97T, D101A
VL: B2 VL with A5T, K44R, E84G, I111V
B9: PR302069 (antibody, human IgG1, kappa, V domains shown)
VH: EMQLVESGGGLVKPGGSLRLSCAASGFTFSNYWMNWVRQAPGKGLEWVAEIRLKSNNYATHYAESVKGRFTISRDDSKSTVYLQMNSLKTEDTAVYYCTVGTLVYWGQGTLVTVSS
VL: DIQLTQSPSSLSASVGDRVTITCRASQSVSTSTYNYMHWFQQKPGKAPKLLIKFASNLESGVPSRFSGSGSGTDFTLTISSLQPEDTATYYCQHSWEIPYTFGQGTKLEIKR
B10: PR005657 (antibody, human IgG1, kappa, V domains shown)
VH: EVQLVESGGVLVQPGGSLRLSCAASGFTFSSYWMTWVRQAPGKGLEWVANIKQDASEKYYVDSVKGRFTISRDNAKNSLFLQMNSLRAEDTAVYYCARTLIFDYWGQGTLVTVSS
VL: DIVMTQSPLSLPVTPGEPASISCRSSQSLLHSTGYNSLEWYLQKPGQSPQLLIYLGSNRASGVPDRFSGSGSGTDFTLKISRVEAEDVGIYYCMQTLQTPITFGQGTRLEIKR
B11: PR006152 (antibody, human IgG1, kappa, V domains shown)
VH: B10 VH with A55S
VL: B10 VL with S37P
B12: PR006142 (antibody, human IgG1, kappa, V domains shown)
VH: B10 VH with D54E, A55G
VL: B10 VL with N36D
B13: PR005658 (antibody, human IgG1, kappa, V domains shown)
VH: B10 VH with A55G
VL: B10 VL with N36Q
B14: PR006144 (antibody, human IgG1, kappa, V domains shown)
VH: B10 VH with D54E, A55G
VL: B10 VL with S37P
B15: PR006150 (antibody, human IgG1, kappa, V domains shown)
VH: B10 VH with A55S
VL: B10 VL with N36D
B16: PR006149 (antibody, human IgG1, kappa, V domains shown)
VH: B10 VH
VL: B10 VL with N36S
B17: PR006147 (antibody, human IgG1, kappa, V domains shown)
VH: B10 VH
VL: B10 VL with N36H
B18: PR006146 (antibody, human IgG1, kappa, V domains shown)
VH: B10 VH
VL: B10 VL with N36D
B19: PR006153 (antibody, human IgG1, kappa, V domains shown)
VH: B10 VH with A55S
VL: B10 VL with N36S
B20: PR006151 (antibody, human IgG1, kappa, V domains shown)
VH: B10 VH with A55S
VL: B10 VL with N36H
B21: PR005662 (antibody, human IgG1, kappa, V domains shown)
VH: B10 VH
VL: B10 VL with N36Q
B22: PR006148 (antibody, human IgG1, kappa, V domains shown)
VH: B10 VH
VL: B10 VL with S37P

Substitutions are numbered along the chain they refer to.

The target of the first assay is T1, biotinylated CRH. Briefly: ELISA, CRH (NT biotin). (ELISA stands for enzyme-linked immunosorbent assay.)
Regarding B1, the binding result is reported as “binds”. On the same count and under the same terms, to B2 belongs “binds”; to B3, “binds”. The same measure, in the same setting: in the case of B4 it was “binds”; in that of B5, “binds”; in that of B6, “binds”.

Turning to B7, the binding result is “binds”. Same read-out and setting: in the case of B8 it was “binds”.

Another assay deals with T2, corticotropin-releasing hormone (CRH) …. Briefly: cell-based or functional assay.
For the molecule B9, the “unlabelled nM value (Table 5 matrix; likely hCRHR1-Luc IC50 as in Tables 6-8)” value came to 1.54 nM.

The target of a further assay is T1, biotinylated CRH. Put plainly: ELISA, CRH (NT biotin). This is another data set of the same source. The procedure:
Streptavidin (Thermo, Cat: 21125) was diluted in PBS to a concentration of 2 μg/ml. 100 μl of diluted streptavidin was added per well to ELISA microplates, and the plates were incubated overnight at 4° C. […] Subsequently, plates were washed and incubated with HRP-conjugated goat anti-human IgG (H+L) antibody (Jackson, Cat: 109-035-088) at 37° C. for 1 hour. 100 μL of 3,3′,5,5′-tetramethylbenzidine (TMB) substrate (Biopanda, Cat: TMB-S-003) was added, and the plates were incubated at room temperature for 15 minutes. 100 μL of ELISA stopping solution (Solarbio, Cat #: C1058) was added to terminate the reaction, and the optical density at 450 nm (OD450 nm) was determined by an ELISA plate reader (Molecular Devices, Spectra max 384 plus).
These potential PTMs were mutated individually either in HCDR2 alone, in LCDR1 alone, or in various combinations of mutations, as detailed in Table 3. […] Most ΔPTM variants retained functional activities.
The EC50 (read off the curve) is the concentration that produces a half-maximal response. With B10, the “EC50 (read off the curve)” value was approximately 0.03 nM.

Turning to B11, the binding result is given as “binds”. With B12, the binding result is on record as “binds”. As to B13, the “EC50 (read off the curve)” value was approximately 0.03 nM. For B14, the binding result is recorded as “binds”. Regarding B15, the binding result is reported as “binds”. With B16, the binding result is on record as “binds”. As to B17, the binding result is “binds”. Consider B18, for which the binding result is listed as “binds”. Consider B19, for which the binding result was “binds”. With B20, the binding result is recorded as “binds”. For the molecule B21, the concentration for a half-maximal effect (EC50 (read off the curve)) was approximately 0.03 nM. As for B22, the binding result is reported as “binds”.

The values above are taken from US20250197490A1 (HBM ALPHA THERAPEUTICS, published 2025).
